In paper PMC2150824 (The Journal of Cell Biology, 2001):
Blank lines part the entries; values can stand above or below the binder they belong to.

What was measured:
[1] = target: F-actin (rabbit skeletal muscle actin) (rabbit, UniProt P68135 1-377); experiment: co-sedimentation
SEC = target: the molecule itself; experiment: SEC

binding result [1]: binds
B1: yeast coronin (natural protein)
chain: MSGKFVRASKYRHVFGQAAKKELQYEKLKVTNNAWDSNLLKTNGKFIAVNWNASGGGAFAVIPIEEVGKAPDQVPLFRGHTAQVLDTDFDPFNDHRIASGSDDSKIGIWDIPENYKFHDHVDEDGEPIDIKPVKFLTGHARKVGHVLYHPVAENVLASSSGDYTVKLWNVETGKDMITLKHPDMVTSMSFSYDGNYLATVARDKKLRVWNIREEKIVSEGPAHTGAKNQRVVWLGNSDRLATTGFSKLSDRQIGIWDAFNIEKGDLGGFYTVDQSSGILMPFYDEGNKILYLVGKGDGNIRYYEFQNDELFELSEFQSTEAQRGFAVAPKRMVNVKENEVLKGFKTVVDQRIEPVSFFVPRRSEEFQEDIYPDAPSNKPALTAEEWFSGKSVEGPILVSMRSIYDGSAPSFHEAKRPQQPTTQETALEEKKEQPKVEKPISESEKEVKQEAPKSPSPLKSASSSSTINHVLKEDNSINKLLKKSSDIDQVNNAEDPSRDTSGWEEADDEPAPIKIETPVTPTETKKDRTPKVEPSKELKPEPVSIATDRKQEQSLPQEEKSSEKTKSPEQEKSATPPSSITAAKTAITASSKEEPSAARTSPKSLGLKKSVEKLSTLVLQLEDVVDKLTKANLDKDERLLKLEQKIGELSK

B2: endogenous Hip1R stripped from CCVs with 0.5 M Tris-HCl (natural protein, UniProt Q9JKY5 1-1068, looked up)
chain: MNSIKNVPARVLSRRPGHSLEAEREQFDKTQAISISKAINSQEAPVKEKHARRIILGTHHEKGAFTFWSYAIGLPLSSSSILSWKFCHVLHKVLRDGHPNVLHDYQRYRSNIREIGDLWGHLRDQYGHLVNIYTKLLLTKISFHLKHPQFPAGLEVTDEVLEKAAGTDVNNIFQLTVEMFDYMDCELKLSESVFRQLNTAIAVSQMSSGQCRLAPLIQVIQDCSHLYHYTVKLMFKLHSCLPADTLQGHRDRFHEQFHSLKNFFRRASDMLYFKRLIQIPRLPEGPPNFLRASALAEHIKPVVVIPEEAPEEEEPENLIEISSAPPAGEPVVVADLFDQTFGPPNGSMKDDRDLQIENLKREVETLRAELEKIKMEAQRYISQLKGQVNGLEAELEEQRKQKQKALVDNEQLRHELAQLKALQLEGARNQGLREEAERKASATEARYSKLKEKHSELINTHAELLRKNADTAKQLTVTQQSQEEVARVKEQLAFQMEQAKRESEMKMEEQSDQLEKLKRELAARAGELARAQEALSRTEQSGSELSSRLDTLNAEKEALSGVVRQREAELLAAQSLVREKEEALSQEQQRSSQEKGELRGQLAEKESQEQGLRQKLLDEQLAVLRSAAAEAEAILQDAVSKLDDPLHLRCTSSPDYLVSRAQAALDSVSGLEQGHTQYLASSEDASALVAALTRFSHLAADTIVNGAATSHLAPTDPADRLMDTCRECGARALELVGQLQDQTVLPRAQPSLMRAPLQGILQLGQDLKPKSLDVRQEELGAMVDKEMAATSAAIEDAVRRIEDMMSQARHESSGVKLEVNERILNSCTDLMKAIRLLVMTSTSLQKEIVESGRGAATQQEFYAKNSRWTEGLISASKAVGWGATQLVESADKVVLHMGKYEELIVCSHEIAASTAQLVAASKVKANKNSPHLSRLQECSRTVNERAANVVASTKSGQEQIEDRDTMDFSGLSLIKLKKQEMETQVRVLELEKTLEAERVRLGELRKQHYVLAGGMGTPSEEEPSRPSPAPRSGATKKPPLAQKPSIAPRTDNQLDKKDGVYPAQLVNY
stoichiometry N (SEC): 2
